Data reported in IntAct's records for PubMed 35512704.

B1: Speckle-type POZ protein (Homo sapiens), O43791 (parent)
chain: MSRVPSPPPPAEMSSGPVAESWCYTQIKVVKFSYMWTINNFSFCREEMGEVIKSSTFSSGANDKLKWCLRVNPKGLDEESKDYLSLYLLLVSCPKSEVRAKFKFSILNAKGEETKAMESQRAYRFVQGKDWGFKKFIRRDFLLDEANGLLPDDKLTLFCEVSVVQDSVNISGQNTMNMVKVPECRLADELGGLWENSRFTDCCLCVAGQEFQAHKAILAARSPVFSAMFEHEMEESKKNRVEINDVEPEVFKEMMCFIYTGKAPNLDKMADDLLAAADKYALERLKVMCEDALCSNLSVENAAEILILADLHSADQLKTQAVDFINYHASDVLETSGWKSMVVSHPHLVAEAYRSLASAQCPFLGPPRKRLKQS
partner: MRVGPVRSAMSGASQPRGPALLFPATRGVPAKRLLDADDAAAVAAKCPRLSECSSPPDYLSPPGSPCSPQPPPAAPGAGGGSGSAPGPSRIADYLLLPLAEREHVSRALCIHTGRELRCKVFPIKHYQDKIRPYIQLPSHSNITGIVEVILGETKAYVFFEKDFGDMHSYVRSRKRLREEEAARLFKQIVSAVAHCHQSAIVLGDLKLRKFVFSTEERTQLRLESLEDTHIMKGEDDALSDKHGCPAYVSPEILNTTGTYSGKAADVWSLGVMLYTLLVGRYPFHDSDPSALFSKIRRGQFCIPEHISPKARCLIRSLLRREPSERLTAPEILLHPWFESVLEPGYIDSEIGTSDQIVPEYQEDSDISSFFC
B2: Speckle-type POZ protein (Homo sapiens), O43791 (parent)
chain: B1 chain
partner: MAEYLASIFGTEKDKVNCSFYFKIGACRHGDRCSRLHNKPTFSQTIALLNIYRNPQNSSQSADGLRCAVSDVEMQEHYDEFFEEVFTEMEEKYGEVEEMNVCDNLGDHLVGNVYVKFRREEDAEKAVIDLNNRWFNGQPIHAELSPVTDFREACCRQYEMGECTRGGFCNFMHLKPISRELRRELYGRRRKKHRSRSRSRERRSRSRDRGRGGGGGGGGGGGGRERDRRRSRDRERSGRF
B3: Speckle-type POZ protein (Homo sapiens), O43791 (parent)
chain: B1 chain
partner: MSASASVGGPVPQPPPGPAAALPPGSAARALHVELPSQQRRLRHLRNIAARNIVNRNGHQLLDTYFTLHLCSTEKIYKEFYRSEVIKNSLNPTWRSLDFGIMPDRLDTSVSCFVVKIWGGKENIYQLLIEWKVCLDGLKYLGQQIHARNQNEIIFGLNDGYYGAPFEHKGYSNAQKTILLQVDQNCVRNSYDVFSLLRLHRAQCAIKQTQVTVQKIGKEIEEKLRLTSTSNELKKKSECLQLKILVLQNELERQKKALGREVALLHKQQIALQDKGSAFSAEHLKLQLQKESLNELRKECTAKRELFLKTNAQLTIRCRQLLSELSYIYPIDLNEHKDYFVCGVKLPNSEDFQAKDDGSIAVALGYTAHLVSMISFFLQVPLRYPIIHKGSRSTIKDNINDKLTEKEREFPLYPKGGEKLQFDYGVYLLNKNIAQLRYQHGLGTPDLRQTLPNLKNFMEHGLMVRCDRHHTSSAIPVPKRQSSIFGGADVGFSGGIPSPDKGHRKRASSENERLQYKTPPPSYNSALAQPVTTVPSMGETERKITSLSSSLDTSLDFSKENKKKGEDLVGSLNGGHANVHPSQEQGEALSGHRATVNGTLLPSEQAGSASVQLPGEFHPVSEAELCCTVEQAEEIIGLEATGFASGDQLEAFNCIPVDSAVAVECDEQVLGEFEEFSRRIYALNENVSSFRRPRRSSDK
B4: Speckle-type POZ protein (Homo sapiens), O43791 (parent)
chain: B1 chain
partner: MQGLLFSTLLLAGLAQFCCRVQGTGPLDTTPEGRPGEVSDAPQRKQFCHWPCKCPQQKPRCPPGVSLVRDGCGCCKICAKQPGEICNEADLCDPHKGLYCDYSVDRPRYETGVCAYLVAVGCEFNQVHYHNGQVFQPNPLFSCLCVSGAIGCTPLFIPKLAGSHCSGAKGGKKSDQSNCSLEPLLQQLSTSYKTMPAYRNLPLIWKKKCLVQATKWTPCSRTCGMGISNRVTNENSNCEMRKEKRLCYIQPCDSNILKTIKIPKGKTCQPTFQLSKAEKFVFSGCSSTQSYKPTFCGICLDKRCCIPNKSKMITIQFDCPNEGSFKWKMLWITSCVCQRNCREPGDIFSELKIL

Variants of: B1
Details: with trib1_human TRIB1, Q96RU8

| Variant | effect of a mutation on the interaction |
| --- | --- |
| Y87C | with no effect |

Variants of: B1
Details: with trib1_human TRIB1, Q96RU8
Remark: another data set of the same source

| Variant | effect of a mutation on the interaction |
| --- | --- |
| F133L | causing an interaction |

Variants of: B1
Details: with trib1_human TRIB1, Q96RU8
Remark: another data set of the same source

| Variant | effect of a mutation on the interaction |
| --- | --- |
| F133V | causing an interaction |

Variants of: B2
Details: with U2AF1, Q01081

| Variant | effect of a mutation on the interaction |
| --- | --- |
| F102C | with no effect |

Variants of: B2
Details: with U2AF1, Q01081
Remark: another data set of the same source

| Variant | effect of a mutation on the interaction |
| --- | --- |
| F133L | with no effect |

Variants of: B2
Details: with U2AF1, Q01081
Remark: another data set of the same source

| Variant | effect of a mutation on the interaction |
| --- | --- |
| Y87C | with no effect |

Variants of: B2
Details: with U2AF1, Q01081
Remark: another data set of the same source

| Variant | effect of a mutation on the interaction |
| --- | --- |
| F133V | with no effect |

Variants of: B3
Details: with uvrag_human UVRAG

| Variant | effect of a mutation on the interaction |
| --- | --- |
| F102C | with no effect |

Variants of: B3
Details: with uvrag_human UVRAG
Remark: another data set of the same source

| Variant | effect of a mutation on the interaction |
| --- | --- |
| F133L | with no effect |

Variants of: B3
Details: with uvrag_human UVRAG
Remark: another data set of the same source

| Variant | effect of a mutation on the interaction |
| --- | --- |
| Y87C | with no effect |

Variants of: B3
Details: with uvrag_human UVRAG
Remark: another data set of the same source

| Variant | effect of a mutation on the interaction |
| --- | --- |
| F133V | with no effect |

Variants of: B4
Details: with ccn6_human CCN6, O95389

| Variant | effect of a mutation on the interaction |
| --- | --- |
| F102C | with no effect |

Variants of: B4
Details: with ccn6_human CCN6, O95389
Remark: another data set of the same source

| Variant | effect of a mutation on the interaction |
| --- | --- |
| F133L | with no effect |

Variants of: B4
Details: with ccn6_human CCN6, O95389
Remark: another data set of the same source

| Variant | effect of a mutation on the interaction |
| --- | --- |
| Y87C | with no effect |
